Measurements: IntAct's records for PubMed 21212807

B1: TRAF family member-associated NF-kappa-B activator (Homo sapiens), Q92844 (parent)
chain: MDKNIGEQLNKAYEAFRQACMDRDSAVKELQQKTENYEQRIREQQEQLSLQQTIIDKLKSQLLLVNSTQDNNYGCVPLLEDSETRKNNLTLDQPQDKVISGIAREKLPKVRRQEVSSPRKETSARSLGSPLLHERGNIEKTFWDLKEEFHKICMLAKAQKDHLSKLNIPDTATETQCSVPIQCTDKTDKQEALFKPQAKDDINRGAPSITSVTPRGLCRDEEDTSFESLSKFNVKFPPMDNDSTFLHSTPERPGILSPATSEAVCQEKFNMEFRDNPGNFVKTEETLFEIQGIDPIASAIQNLKTTDKTKPSNLVNTCIRTTLDRAACLPPGDHNALYVNSFPLLDPSDAPFPSLDSPGKAIRGPQQPIWKPFPNQDSDSVVLSGTDSELHIPRVCEFCQAVFPPSITSRGDFLRHLNSHFNGET
partner: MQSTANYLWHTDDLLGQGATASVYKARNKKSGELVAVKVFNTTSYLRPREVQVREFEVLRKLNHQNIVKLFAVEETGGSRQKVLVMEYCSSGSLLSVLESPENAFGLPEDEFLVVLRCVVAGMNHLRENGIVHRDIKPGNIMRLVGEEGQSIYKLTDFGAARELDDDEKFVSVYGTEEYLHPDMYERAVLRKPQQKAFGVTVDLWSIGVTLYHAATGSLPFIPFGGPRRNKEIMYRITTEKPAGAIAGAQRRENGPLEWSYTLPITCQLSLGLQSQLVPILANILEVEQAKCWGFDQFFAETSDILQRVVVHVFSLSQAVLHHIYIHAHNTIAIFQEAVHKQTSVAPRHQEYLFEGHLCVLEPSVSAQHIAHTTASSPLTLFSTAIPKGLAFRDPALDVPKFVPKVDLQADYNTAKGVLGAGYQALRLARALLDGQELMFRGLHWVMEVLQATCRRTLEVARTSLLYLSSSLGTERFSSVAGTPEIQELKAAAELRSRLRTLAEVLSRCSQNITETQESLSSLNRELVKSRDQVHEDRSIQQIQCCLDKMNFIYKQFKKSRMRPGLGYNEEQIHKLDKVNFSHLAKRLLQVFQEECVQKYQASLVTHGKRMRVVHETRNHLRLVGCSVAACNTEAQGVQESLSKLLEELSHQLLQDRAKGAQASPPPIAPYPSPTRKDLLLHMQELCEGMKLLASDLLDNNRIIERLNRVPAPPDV

Variants of: B1
Conditions: with ikke_human IKBKE

Row | Variant | effect of a mutation on the interaction
1 | K282R | increasing interaction
